Data published in paper PMC4773402, “Comparison of the aggregation of homologous β2-microglobulin variants reveals protein solubility as a key determinant of amyloid formation” (Journal of Molecular Biology, 2016).

Molecular target: the molecule itself
Assay: AUC; sedimentation velocity, 25 °C, 48,000 rpm, 50 μM protein, pH 2.5 buffer with 0.3 M NaCl, absorbance at 280 nm, SEDFIT

B1: mouse β2-microglobulin (natural protein, UniProt P01887 21-119, looked up)
chain: IQKTPQIQVYSRHPPENGKPNILNCYVTQFHPPHIEIQMLKNGKKIPKVEMSDMSFSKDWSFYILAHTEFTPTETDTYACRVKHASMAEPKTVYWDRDM
notes: β2-microglobulin, mouse; In the AUC the protein was acid-unfolded at pH 2.5; also called mβ2m; source: expressed and prepared as described previously [47]; purified (anion exchange at pH 8.5, gel filtration), lyophilised
binding result: binds
